Assay results from US20220387586A1 (Hoffmann-La Roche, published 2022).

T1: LAG3 on cells (recombinant CHO cells expressing Lag3) (human, UniProt P18627 29-525)
T1 sequence: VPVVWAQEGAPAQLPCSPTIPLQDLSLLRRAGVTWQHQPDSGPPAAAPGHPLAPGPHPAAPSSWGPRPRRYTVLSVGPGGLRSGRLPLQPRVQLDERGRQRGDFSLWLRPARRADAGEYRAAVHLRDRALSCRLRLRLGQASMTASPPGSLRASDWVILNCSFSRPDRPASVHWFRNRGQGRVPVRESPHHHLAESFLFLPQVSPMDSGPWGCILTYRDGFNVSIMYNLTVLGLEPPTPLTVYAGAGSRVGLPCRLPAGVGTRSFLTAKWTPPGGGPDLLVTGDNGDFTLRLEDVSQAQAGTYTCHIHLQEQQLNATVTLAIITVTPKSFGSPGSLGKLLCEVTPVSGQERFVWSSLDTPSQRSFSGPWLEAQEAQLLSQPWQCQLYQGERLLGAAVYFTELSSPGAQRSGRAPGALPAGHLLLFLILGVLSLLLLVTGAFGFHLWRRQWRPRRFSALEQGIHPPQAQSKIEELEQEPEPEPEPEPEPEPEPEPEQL

T2: biotinylated-Lag3 (UniProt P18627 23-450, limits assumed, biotinylated)
T2 construct: Probably a human LAG3 ECD construct; also called Lag3 (MHCII/ELISA)
T2 sequence (looked up): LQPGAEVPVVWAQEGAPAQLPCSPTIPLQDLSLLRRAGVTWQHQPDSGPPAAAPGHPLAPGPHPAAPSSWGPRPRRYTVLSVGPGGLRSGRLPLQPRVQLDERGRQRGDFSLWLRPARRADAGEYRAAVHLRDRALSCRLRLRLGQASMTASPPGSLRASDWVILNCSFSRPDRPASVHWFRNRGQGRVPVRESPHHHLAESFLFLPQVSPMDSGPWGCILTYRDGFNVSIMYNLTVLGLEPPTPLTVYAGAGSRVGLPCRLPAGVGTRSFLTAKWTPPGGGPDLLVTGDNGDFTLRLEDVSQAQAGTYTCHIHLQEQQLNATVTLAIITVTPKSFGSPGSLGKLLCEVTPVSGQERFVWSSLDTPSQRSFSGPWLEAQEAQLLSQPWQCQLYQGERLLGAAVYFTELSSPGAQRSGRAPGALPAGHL


Key:
[1] = target: T3, full-length human PD1 on cells (human, UniProt Q15116 25-288); assay: cell ELISA on CHO-K1 cells expressing full-length human PD1
T3 construct: also called CHO-PD1
T3 sequence (Q15116 25-288 limits assumed): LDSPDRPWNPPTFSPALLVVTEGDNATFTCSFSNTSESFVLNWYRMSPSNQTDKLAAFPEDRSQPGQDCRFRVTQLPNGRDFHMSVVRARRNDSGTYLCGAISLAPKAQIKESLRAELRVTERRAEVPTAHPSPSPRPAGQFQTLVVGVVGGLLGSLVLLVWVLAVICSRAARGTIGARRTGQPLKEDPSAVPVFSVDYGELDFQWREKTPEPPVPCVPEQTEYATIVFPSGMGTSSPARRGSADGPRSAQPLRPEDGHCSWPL
Description: (to avoid internalization). After washing carefully (1×90 μl/well PBST) cells were fixed by adding 30 μl/well 0.05% Glutaraldehyde (Sigma, Cat.No: G5882, 25%) diluted in 1×PBS-buffer and incubated for 10 min at RT. After washing (3×90 μl/well PBST) 25 μl/well secondary antibody was added for detection: goat-anti-human H+L-POD (JIR, JIR109-036-088)/Sheep-anti-mouse-POD (GE NA9310) followed by 1h incubation at RT on shaker. After washing (3×90 μl/well PBST) 25 μl/well TMB substrate solution (Roche 11835033001) was added and incubated until OD 1.0-2.0. Plates were measured at 370/492 nm.

hu PD1-ECD [2] = target: T4, hu PD1-ECD (human, UniProt Q15116 25-170); assay: SPR (Biacore T200), antibody captured by anti-human IgG, hu PD1-ECD as analyte, 25 °C, 1:1 Langmuir fit
T4 construct: SPR analyte; also called human PD1-ECD
T4 sequence (Q15116 25-170 limits assumed): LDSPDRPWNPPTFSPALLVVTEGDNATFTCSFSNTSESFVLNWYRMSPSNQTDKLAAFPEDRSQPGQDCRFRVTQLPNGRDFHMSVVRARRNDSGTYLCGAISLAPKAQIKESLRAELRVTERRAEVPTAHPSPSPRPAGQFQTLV
Description: Therefore, an anti-human IgG was immobilized by amine coupling to the surface of a (Biacore) CM5 sensor chip. […] The sensor chip surface was regenerated after each analysis cycle. The equilibrium constant and kinetic rate constants were finally gained by fitting the data to a 1:1 langmuir interaction model.
(§1) The samples were injected for 20 seconds with a concentration of 10 nM and bound to the second flow cell.
Finally the double referenced data was fitted to a 1:1 Langmuir interaction model with the Biacore T200 Evaluation Software.

hu PD1-ECD [3] = target: T4, hu PD1-ECD; assay: SPR; row head 'Affinity KD 37° C.'; first of two numbers
Description: as §1

[4] = target: T5, biotinylated cynoPD1-ECD-Biotin (cynomolgus, UniProt B0LAJ3 25-170, biotinylated; the site and any Avi or His tag are not stated in the passages shown); assay: ELISA on coated cynoPD1-ECD-Biotin
T5 construct: also called cyPD1
T5 sequence (B0LAJ3 entry or part of it limits assumed): as the sequence (Q15116 25-170 limits assumed) above, with D2E, P10A, V19L, T35A, Q75R, T144A counted along it

[5] = target: T6, biotinylated PD1-ECD-AviHis (human, UniProt Q15116 25-170, biotinylated); assay: ELISA (hu PD1, as described above)
T6 construct: also called huPD1; hu PD1; not shown: Avi-His tag
T6 sequence (Q15116 25-170): as the sequence (Q15116 25-170 limits assumed) above
Description: After washing (3×90 μl/well with PBST-buffer) 25 μl/well goat-anti-human H+L-POD (JIR, JIR109-036-088)/Sheep-anti-mouse-POD (GE Healthcare; NA9310) was added in 1:2000/1:1000 dilution and incubated at RT for 1 h on shaker. After washing (3×90 μl/well with PBST-buffer) 25 μl/well TMB substrate (Roche Catalogue No. 11835033001) was added and incubated until OD 2-3. Measurement took place at 370/492 nm.

[6] = target: T6, biotinylated PD1-ECD-AviHis; assay: ELISA on coated biotinylated PD1-ECD-AviHis
[7] = target: T5, biotinylated cynoPD1-ECD-Biotin; assay: ELISA on cyno PD1; row head 'cynomolgus crossreactivity (EC50 [nm])'
hu PD1-ECD [8] = target: T4, hu PD1-ECD; assay: SPR; row head 'Affinity KD 37° C.'; second of two numbers, equal to the 25 °C value of Table 3
[9] = target: PD1 on PD1+LAG3+ human U2OS cells (UniProt Q15116 25-288); assay: cellular PD1/LAG3 dimerization assay, 7500 PD1+LAG3+ U2OS cells a well, 20 h at 37 °C, chemoluminescence; the signal needs PD1 and LAG3 bound at once
PD1 on PD1+LAG3+ human U2OS cells, sequence (Q15116 25-288): as the sequence (Q15116 25-288 limits assumed) above
Description: Next, assay plates were equilibrated to room temperature and a substrate/buffer mix (PathHunterFlash detection reagent, Discoverx) was added and again incubated for 4h. For measuring chemoluminescence induced upon simultaneous binding and dimerization a SpectraMax L plate reader (Molecular Devices) was used.

[10] = target: T3, full-length human PD1 on cells; assay: cell-based or functional assay
[11] = target: T1, LAG3 on cells (recombinant CHO cells …); assay: cell-based or functional assay
biotinylated-Lag3 = target: T2, biotinylated-Lag3; assay: ELISA, inhibition of biotinylated-Lag3 binding to MHC-II on A375 cells (competitor MHC-II)
Description: 25 μl/well of A375 cells (10000 cells/well) were seeded into tissue culture treated 384-well plates (Corning, 3701) and incubated at 37° C. overnight. […] After washing (1×90 μl in PBST) cells were fixed by addition of 30 μl/well glutaraldehyde to a final concentration of 0.05% (Sigma Cat.No: G5882), 10 min at room temperature. After washing (3×90 μl/well with PBST-buffer) 25 μl/well Poly-HRP40-Streptavidin (Fitzgerald, 65R-S104PHRPx) was added in a 1:2000 or 1:8000 dilution and incubated at RT for 1 h. After washing (3×90 μl/well with PBST-buffer) 25 μl/well TMB substrate (Roche, #11835033001) was added and incubated for 2 to 10 min. Measurement took place on a Tecan Safire 2 instrument at 370/492 nm.

cynomolgus LAG3 on cells = target: T7, cynomolgus LAG3 on cells (cynomolgus); assay: flow cytometry on activated cynomolgus PBMC, 10 µg/ml (only 2nd Ab (hu): 7.62)
T7 construct: whole, on cells; also called cyno-LAG-3; cynoLAG3
Description: Thus, cynomolgus peripheral blood mononuclear cells (PBMC) were prepared from fresh cynomolgus blood and were then activated by CD3/CD28 pre-treatment (1 μg/ml) for 2-3 days. […] After staining, cells were washed two times with PBS/2% FCS and analyzed on a FACS Fortessa (BD).

[12] = target: T1, LAG3 on cells (recombinant CHO cells …); assay: cell-based or functional assay; remark: listed apart in the source

Binder	EC50 [1] [µg/mL]	Kd (hu PD1-ECD [2]) [nM]	koff (hu PD1-ECD [2]) [s⁻¹]	kon (hu PD1-ECD [2]) [M⁻¹ s⁻¹]	Kd (hu PD1-ECD [3]) [nM]	EC50 [4] [µg/mL]	EC50 [5] [nM]	EC50 [6] [µg/mL]	EC50 [7] [nM]	Kd (hu PD1-ECD [8]) [nM]	% positive cyno cells (PBLs) after CD3/CD28 activation (cynomolgus LAG3 on cells) [%]	also measured
PD1-0103-0312 (antibody, human IgG1, V domains shown, Humanized; also called PD1-103-0312; PD-0103-0312) VH: EVQLLESGGGLVQPGGSLRLSCAASGFSFSSYTMSWVRQAPGKGLEWVATISGGGRDIYYPDSVKGRFTISRDNSKNTLYLQMNSLRAEDTAVYYCVLLTGRVYFALDSWGQGTLVTVSS VL: DIVMTQSPDSLAVSLGERATINCKASESVDTSDNSFIHWYQQKPGQSPKLLIYRSSTLESGVPDRFSGSGSGTDFTLTISSLQAEDVAVYYCQQNYDVPWTFGQGTKVEIK	0.0101	1.8	0.000345	195000	1.5	0.0083	0.1	0.011	0.08	1.8	–	–
PD1-0103-0313 (antibody, human IgG1, V domains shown, Humanized; also called PD1-103-0313; PD-0103-0313) VH: EVQLLESGGGLVQPGGSLRLSCAASGFSFSSYTMSWVRQAPGKGLEWVATISGGGRDIYYPDSVKGRFTISRDNSKNTLYLQMNSLRAEDTAVYYCVLLTGRVYFALDSWGQGTLVTVSS VL: DVVMTQSPLSLPVTLGQPASISCRASESVDTSDNSFIHWYQQRPGQSPRLLIYRSSTLESGVPDRFSGSGSGTDFTLKISRVEAEDVGVYYCQQNYDVPWTFGQGTKVEIK	0.0108	2.3	0.000367	160000	1.9	0.011	0.07	0.015	0.06	2.3	–	–
PD1/LAG3 0750 (bispecific antibody, human IgG1, kappa, L234A L235A, 2+1 trans format: one LAG3 Fab N-terminal, one fused to the C-terminus of the Fc hole chain; also called 1 + 2 trans) heavy 1: not shown heavy 2: EVQLLESGGGLVQPGGSLRLSCAASGFIFDDYTMNWVRQAPGKGLEWVAVISWDGGGTYYTDSVKGRFTISRDDFKNTLYLQMNSLRAEDTAVYYCAKGLTDTTLYGSDYWGQGTLVTVSSASTKGPSVFPLAPSSKSTSGGTAALGCLVEDYFPEPVTVSWNSGALTSGVHTFPAVLQSSGLYSLSSVVTVPSSSLGTQTYICNVNHKPSNTKVDEKVEPKSCDKTHTCPPCPAPEAAGGPSVFLFPPKPKDTLMISRTPEVTCVVVDVSHEDPEVKFNWYVDGVEVHNAKTKPREEQYNSTYRVVSVLTVLHQDWLNGKEYKCKVSNKALGAPIEKTISKAKGQPREPQVCTLPPSRDELTKNQVSLSCAVKGFYPSDIAVEWESNGQPENNYKTTPPVLDSDGSFFLVSKLTVDKSRWQQGNVFSCSVMHEALHNHYTQKSLSLSPGKGGGGSGGGGSEVQLLESGGGLVQPGGSLRLSCAASGFIFDDYTMNWVRQAPGKGLEWVAVISWDGGGTYYTDSVKGRFTISRDDFKNTLYLQMNSLRAEDTAVYYCAKGLTDTTLYGSDYWGQGTLVTVSSASTKGPSVFPLAPSSKSTSGGTAALGCLVEDYFPEPVTVSWNSGALTSGVHTFPAVLQSSGLYSLSSVVTVPSSSLGTQTYICNVNHKPSNTKVDEKVEPKSC light 1: EVQLLESGGGLVQPGGSLRLSCAASGFSFSSYTMSWVRQAPGKGLEWVATISGGGRDIYYPDSVKGRFTISRDNSKNTLYLQMNSLRAEDTAVYYCVLLTGRVYFALDSWGQGTLVTVSSASVAAPSVFIFPPSDEQLKSGTASVVCLLNNFYPREAKVQWKVDNALQSGNSQESVTEQDSKDSTYSLSSTLTLSKADYEKHKVYACEVTHQGLSSPVTKSFNRGEC light 2: not shown	–	–	–	–	–	–	–	–	–	–	–	EC50 (read off the curve) [9]: ~0.06 nM; EC50 [nM], PD-1 & LAG-3 combo reporter assay (NFAT luciferase) [10]: 0.6 nM; EC50 [nM], PD-1 & LAG-3 combo reporter assay (NFAT luciferase) [11]: 0.6 nM

More lines, main results first:

EC50 [1] [µg/mL]	Kd (hu PD1-ECD [2]) [nM]	koff (hu PD1-ECD [2]) [s⁻¹]	kon (hu PD1-ECD [2]) [M⁻¹ s⁻¹]	Kd (hu PD1-ECD [3]) [nM]	EC50 [4] [µg/mL]	EC50 [5] [nM]	EC50 [6] [µg/mL]	EC50 [7] [nM]	Kd (hu PD1-ECD [8]) [nM]	% positive cyno cells (PBLs) after CD3/CD28 activation (cynomolgus LAG3 on cells) [%]	Binder	also measured
–	–	–	–	–	–	–	–	–	–	50.7	humanized BAP050 (LAG525) (antibody, V domains shown, also called aLAG3(BAP050)) VH: QIQLVQSGPELKKPGETVKISCKASGFTLTNYGMNWVRQTPGKGLKWMGWINTDTGEPTYADDFKGRFAFSLETSASTASLQINNLKNADTATYFCARNPPYYYGTNNAEAMDYWGQGTTVTVSS VL: DIQMTQTTSSLSASLGDRVTISCSSSQDISNYLNWYQQKPDGTVKVLIYYTSTLHLGVPSRFSGSGSGTDYSLTISNLELEDIATYYCQQYYNLPWTFGQGTKVEIK	IC50 (biotinylated-Lag3): 1 nM; EC50 [nM] in Jurkat LAG3 + SED + Raji (NFAT luciferase), 2nd assay [12]: 22.6 nM
–	–	–	–	–	–	–	–	–	–	18.6	Reference LAG3 antibody BMS-986016 (antibody, V domains shown, also called aLAG3(BMS986016)) VH: QVQLQQWGAGLLKPSETLSLTCAVYGGSFSDYYWNWIRQPPGKGLEWIGEINHRGSTNSNPSLKSRVTLSLDTSKNQFSLKLRSVTAADTAVYYCAFGYSDYEYNWFDPWGQGTLVTVSS VL: EIVLTQSPATLSLSPGERATLSCRASQSISSYLAWYQQKPGQAPRLLIYDASNRATGIPARFSGSGSGTDFTLTISSLEPEDFAVYYCQQRSNWPLTFGQGTNLEIK	–
